B1: RHOBTB3 (parent)
chain: STTEGIQLAKELGATYLELHSLDD
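Also: lentivirally expressed fusions sorted by FACS into six bins by GFP to DsRed ratio, PSI derived from sequencing read proportions per bin multiplied by bin number.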

Variants of B1 are the subject of the series. Nature of the series: protein stability index of a GFP-peptide fusion (GPS, HEK-293T) (PSI 1-6); higher = more stable. The settings on record: c terminus: a fixed tail appended.
Regarding STTEGIQLAKELGATYLELTSLDD [H20T], the protein stability index was determined as 3.15.
Consider STTEGIQLAKELGATYLELYSLDD [H20Y], for which the protein stability index came out at 2.44.
STTEGIQLAKELGATYLELNSLDD [H20N]: the protein stability index stood at 4.46.
Take STTEGIQLAKELGATYLELPSLDD [H20P]: the protein stability index is 4.93.
Take STTEGIQLAKELGATYLELDSLDD [H20D]: the protein stability index was found to be 4.95.
For STTEGIQLAKELGATYLELCSLDD [H20C] the value was 2.68; for STTEGIQLAKELGATYLELVSLDD [H20V], 1.65; for STTEGIQLAKELGATYLELKSLDD [H20K], 2.42.
To STTEGIQLAKELGATYLELISLDD [H20I] belongs 1.76; to STTEGIQLAKELGATYLELLSLDD [H20L], 1.41.
With STTEGIQLAKELGATYLELFSLDD [H20F], the protein stability index came to 2.75.
To STTEGIQLAKELGATYLELASLDD [H20A] belongs 2.73; to STTEGIQLAKELGATYLELESLDD [H20E], 3.45.
Turning to STTEGIQLAKELGATYLELWSLDD [H20W], the protein stability index stood at 1.93.
For the variant STTEGIQLAKELGATYLELQSLDD [H20Q], the protein stability index came out at 3.13.
For the variant STTEGIQLAKELGATYLELSSLDD [H20S], the protein stability index is 3.44.
On to STTEGIQLAKELGATYLELHSSDD [L22S], for which the protein stability index came out at 4.47.
For STTEGIQLAKELGATYLELHSRDD [L22R] the value was 5.07; for STTEGIQLAKELGATYLELHSVDD [L22V], 4.3.
For STTEGIQLAKELGATYLELHSYDD [L22Y] the value was 4.41; for STTEGIQLAKELGATYLELHSEDD [L22E], 5.93; for STTEGIQLAKELGATYLELHSCDD [L22C], 4.01.
For STTEGIQLAKELGATYLELHSFDD [L22F], the protein stability index is 3.47.
For STTEGIQLAKELGATYLELHSNDD [L22N] the value was 4.68; for STTEGIQLAKELGATYLELHSGDD [L22G], 3.38.
With STTEGIQLAKELGATYLELHSKDD [L22K], the protein stability index stood at 4.68.
To STTEGIQLAKELGATYLELHSQDD [L22Q] belongs 4.91; to STTEGIQLAKELGATYLELHSWDD [L22W], 3.45; to STTEGIQLAKELGATYLELHSIDD [L22I], 3.7.
For the variant STTEGIQLAKELGATYLELHSADD [L22A], the protein stability index was determined as 4.99.
On to STTEGIQLAKELGATYLELHSPDD [L22P], for which the protein stability index is 4.54.
For STTEGIQLAKELGATYLELHSDDD [L22D] the value was 4.96; for STTEGIQLAKELGATYLELHSTDD [L22T], 4.15.
Turning to STTEGIQLAKELGATYLELHSMDD [L22M], the protein stability index came to 4.32.
For STTEGIQLAKELGATYLELHSHDD [L22H] the value was 4.62; for STTEGIQLAKELGATYLEWHSLDD [L19W], 4.68.
For STTEGIQLAKELGATYLEKHSLDD [L19K] the value was 5.37; for STTEGIQLAKELGATYLETHSLDD [L19T], 4.96.
As for STTEGIQLAKELGATYLEMHSLDD [L19M], the protein stability index is 4.38.
On to STTEGIQLAKELGATYLEVHSLDD [L19V], for which the protein stability index is 4.68.
To STTEGIQLAKELGATYLEPHSLDD [L19P] belongs 5.37; to STTEGIQLAKELGATYLEQHSLDD [L19Q], 5.55.
To STTEGIQLAKELGATYLENHSLDD [L19N] belongs 5; to STTEGIQLAKELGATYLEHHSLDD [L19H], 5.02.
For STTEGIQLAKELGATYLEIHSLDD [L19I] the value was 2.38; for STTEGIQLAKELGATYLESHSLDD [L19S], 5.01.
Turning to STTEGIQLAKELGATYLERHSLDD [L19R], the protein stability index amounted to 4.43.
For STTEGIQLAKELGATYLEYHSLDD [L19Y], the protein stability index is 4.82.
Take STTEGIQLAKELGATYLELHELDD [S21E]: the protein stability index amounted to 3.93.
To STTEGIQLAKELGATYLELHHLDD [S21H] belongs 3.38.
For STTEGIQLAKELGATYLELHTLDD [S21T] the value was 3.79.
To STTEGIQLAKELGATYLELHKLDD [S21K] belongs 3.02; to STTEGIQLAKELGATYLELHALDD [S21A], 2.93.
For STTEGIQLAKELGATYLELHDLDD [S21D], the protein stability index is 4.49.
On to STTEGIQLAKELGATYLELHVLDD [S21V], for which the protein stability index was 2.93.
As to STTEGIQLAKELGATYLELHNLDD [S21N], the protein stability index was 4.
For STTEGIQLAKELGATYLELHYLDD [S21Y] the value was 1.59.
As for STTEGIQLAKELGATYLELHWLDD [S21W], the protein stability index worked out at 1.03.
Consider STTEGIQLAKELGATYLELHCLDD [S21C], for which the protein stability index is 3.14.
For STTEGIQLAKELGATYLELHGLDD [S21G] the value was 4.
For STTEGIQLAKELGATYLELHFLDD [S21F] the value was 1.64.
For STTEGIQLAKELGATYLELHQLDD [S21Q] the value was 3.39; for STTEGIQLAKELGATYLELHRLDD [S21R], 2.86; for STTEGIQLAKELGATYLELHPLDD [S21P], 4.06.
STTEGIQLAKELGATYLELHSLFD [D23F]: the protein stability index worked out at 1.71.
For STTEGIQLAKELGATYLELHSLTD [D23T] the value was 3.75; for STTEGIQLAKELGATYLELHSLND [D23N], 3.13.
As for STTEGIQLAKELGATYLELHSLVD [D23V], the protein stability index amounted to 2.29.
In the case of STTEGIQLAKELGATYLELHSLSD [D23S], the protein stability index was 3.
To STTEGIQLAKELGATYLELHSLLD [D23L] belongs 2.21; to STTEGIQLAKELGATYLELHSLHD [D23H], 3.71; to STTEGIQLAKELGATYLELHSLRD [D23R], 2.81.
Turning to STTEGIQLAKELGATYLELHSLAD [D23A], the protein stability index is 2.43.
On to STTEGIQLAKELGATYLELHSLID [D23I], for which the protein stability index was determined as 2.07.
To STTEGIQLAKELGATYLELHSLCD [D23C] belongs 1.87; to STTEGIQLAKELGATYLELHSLYD [D23Y], 2.42.
For STTEGIQLAKELGATYLELHSLQD [D23Q] the value was 3.55.
Take STTEGIQLAKELGATYLELHSLPD [D23P]: the protein stability index amounted to 3.66.
To STTEGIQLAKELGATYLELHSLWD [D23W] belongs 2.92.
For STTEGIQLAKELGATYLELHSLKD [D23K] the value was 3.14.
For STTEGIQLAKELGATYLELHSLDP [D24P] the value was 3.16; for STTEGIQLAKELGATYLELHSLDQ [D24Q], 1.96; for STTEGIQLAKELGATYLELHSLDA [D24A], 2.17.
For the variant STTEGIQLAKELGATYLELHSLDW [D24W], the protein stability index came out at 2.09.
For STTEGIQLAKELGATYLELHSLDE [D24E] the value was 3.35; for STTEGIQLAKELGATYLELHSLDM [D24M], 1.38.
Regarding STTEGIQLAKELGATYLELHSLDN [D24N], the protein stability index is 2.16.
For the variant STTEGIQLAKELGATYLELHSLDT [D24T], the protein stability index worked out at 2.05.
For STTEGIQLAKELGATYLELHSLDG [D24G] the value was 1.94; for STTEGIQLAKELGATYLELHSLDS [D24S], 2.02; for STTEGIQLAKELGATYLELHSLDV [D24V], 1.57.
To STTEGIQLAKELGATYLELHSLDY [D24Y] belongs 2.7; to STTEGIQLAKELGATYLELHSLDK [D24K], 3.02.
On to STTEGIQLAKELGATYLELHSLDI [D24I], for which the protein stability index came to 2.7.

The values above are taken from the supplement of paper PMC10567573.
